Data published in patent US20260226161A1 (EXELIXIS, published 2026).

T1: CD94 (in the NKG2A/CD94 heterodimeric ectodomain complex) (UniProt Q13241 32-179)
T1 construct: extracellular domain; Tested only as part of the complex; also called CD94 protein
T1 sequence (looked up): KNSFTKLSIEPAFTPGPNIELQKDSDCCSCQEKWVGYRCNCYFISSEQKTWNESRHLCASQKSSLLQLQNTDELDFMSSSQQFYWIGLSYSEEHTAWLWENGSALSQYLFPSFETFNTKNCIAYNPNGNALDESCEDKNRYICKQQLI


What was measured:
PD-L1 expressed on cells [1] = target: T2, PD-L1 expressed on cells (UniProt Q9NZQ7 19-290, limits assumed); assay: cell-based or functional assay
[2] = target: T3, NKG2A expressed on KHYG-1 cells (endogenous) (human, UniProt P26715 1-233; Q13241 1-179); assay: cell-based or functional assay
PD-L1 expressed on cells [3] = target: T2, PD-L1 expressed on cells; assay: cell-based or functional assay; remark: listed apart in the source
[4] = target: T1, CD94 (in the NKG2A/CD94 heterodimeric …); assay: HDX-MS on the NKG2A/CD94 ectodomain complex
Procedure: Two different Quench conditions were used for digestion to improve the coverage. Both Data sets 1 and 2 were collected for 3 different timepoints (2, 10, and 60 mins) in triplicate. D₂O Buffer used was 20 mM Phos, 150 mM NaCl, pH 7.4. The relative fractional uptake greater than 5% was considered significant in the analysis.
Leap HDX auto sampler and Waters Cyclic IMS MS were the instruments used.
Quenching: The exchange reaction was quenched by a shift to acidic pH and a temperature drop (two proprietary conditions were used-potential variation in buffer formulation included the use of denaturants or reducing agents).

PD-L1 expressed on cells [5] = target: T2, PD-L1 expressed on cells; assay: flow cytometry on MC/CAR cells expressing PD-L1
Procedure: (§1) Cells were collected by centrifugation at 400×g for 7 minutes and primary antibody was removed. 50 μL per well of AF488 goat anti human IgG Fab (Jackson Immuno Research 109-547-003) at 1:100 dilution was added. Plates were placed at 4° C. for 30 minutes.
(§2) Cells were collected by centrifugation at 400×g for 7 minutes and secondary antibody was removed. Cells were resuspended in 50 μL per well of PBS and analyzed by flow cytometry. Binding curves were calculated using the mean fluorescence intensity (MFI) of the FITC fluorescence signal on the cells. Bispecific antibody binding was evaluated in KHYG-1 cells expressing endogenous NKG2A and in MC/CAR cells expressing PD-L1. Cells were harvested and assayed for binding as described above.

[6] = target: T4, Human NKG2A & CD94 with mouse IgG2a Fc tag (AcroBiosystems) (human, UniProt P26715 94-233; Q13241 32-179, limits assumed); assay: SPR (Carterra), antibody on chip, soluble antigen
T4 construct: Bought soluble antigen of the Carterra assay; also called hNKG2A; not shown: mouse IgG2a Fc tag

[7] = target: T5, Human PD-L1 with His tag (AcroBiosystems) (human, UniProt Q9NZQ7 19-238); assay: SPR (Carterra), antibody on chip, soluble antigen
T5 construct: Bought protein; also called hPD-L1; not shown: His tag

Cyno PD-L1 = Cyno PD-L1 (cyno, UniProt G7PSE7 19-238); assay: SPR (Carterra), antibody on chip, soluble antigen
[8] = target: T3, NKG2A expressed on KHYG-1 cells …; assay: flow cytometry on KHYG-1 cells expressing endogenous NKG2A
Procedure: as §1, §2

[9] = target: T3, NKG2A expressed on KHYG-1 cells …; assay: flow cytometry competition; inhibition of HLA-E tetramer binding to KHYG-1 cells
Procedure: 15 μL per well of binder dilution at 2× concentration was plated in a 96-well plate (Costar 3897). 15 μL per well of cell suspension at 5×10⁶ cells per mL was added. Plates were placed at 4° C. for 30 minutes. Following the incubation, 5 μL per well of Fc block (BD Pharmingen Cat #564220) was added at a final concentration of 500 ng per well. Plates were placed at 4° C. for 10 minutes. […] Plates were placed at 4° C. for 1 hour. Following the incubation, 100 μL per well of PBS was added and plate was centrifuged at 400×g for 7 minutes. Supernatant was removed by flicking the plate. Cells were resuspended in 50 μL per well of PBS and analyzed by flow cytometry (Intellicyt).

[10] = target: T6, cynomolgus NKG2A/CD94 (soluble antigen of the equilibrium assay) (cynomolgus, UniProt Q68VD2 94-233; Q68VD4 32-179, Biotinylated in the Octet assays of Example 2; state in the SPR equilibrium assay not seen.); assay: SPR equilibrium response, Langmuir isotherm; antibody on chip, soluble antigen
T6 construct: also called Cyno NKG2A/CD94; copies: 1 + 1
Procedure: In addition, a method using an equilibrium approach was performed. Kd determinations for cynomolgus NKG2A/CD94 were performed by measuring the signal response at equilibrium. […] The equilibrium response signals and corresponding antigen concentrations were then input into a Langmuir binding isotherm model, and the Kd was determined through nonlinear regression. Averages and standard deviations were calculated from 24 replicate chip locations for each molecule.

[11] = target: T7, biotinylated human NKG2C/CD94 heterodimer (extracellular domains, Fc fusions) (human, UniProt P26717 94-231; Q13241 32-179, biotinylated); assay: selection summary of Examples 2-5 (Octet binding)
T7 construct: not shown: N-terminal Fc (hole)

[12] = target: T8, biotinylated cyno NKG2A/CD94 heterodimer (extracellular domains) (cynomolgus, UniProt Q9MZJ3 94-233; Q9MZK9 32-179, biotinylated); assay: selection summary of Examples 2-5 (Octet binding)
T8 construct: also called Cynomolgus NKG2A protein; not shown: fusion partner/tags ('similar approach' to the human proteins); fusion partner ('similar approach')

[13] = target: T3, NKG2A expressed on KHYG-1 cells …; assay: flow cytometry on KHYG-1 cells expressing endogenous NKG2A; remark: listed apart in the source
Procedure: Antibodies that were selected for binding to NKG2A, for example, such as those described in Examples 1 and 2, were evaluated for binding to cells that express NKG2A.
Cells were harvested at 70-90% confluence on the day of the assay. Cells were collected by centrifugation at 200×g for 5 minutes and media was removed. Cells were resuspended at 2×10⁶ cells per mL in cold PBS. […] 50 μL per well of the antibody dilution was plated in a 96 well V-bottom plate (Costar 3897). 50 μL per well of cell suspension was added. Plates were placed at 4° C. for 45-60 minutes.

T4 sequence (P26715 94-233 limits assumed, one chain of several): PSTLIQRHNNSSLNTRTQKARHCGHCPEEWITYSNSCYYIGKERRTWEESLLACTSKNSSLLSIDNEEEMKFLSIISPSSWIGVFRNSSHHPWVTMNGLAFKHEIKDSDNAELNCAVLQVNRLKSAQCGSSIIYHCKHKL
Chain of Cyno PD-L1 (G7PSE7 entry or part of it limits assumed): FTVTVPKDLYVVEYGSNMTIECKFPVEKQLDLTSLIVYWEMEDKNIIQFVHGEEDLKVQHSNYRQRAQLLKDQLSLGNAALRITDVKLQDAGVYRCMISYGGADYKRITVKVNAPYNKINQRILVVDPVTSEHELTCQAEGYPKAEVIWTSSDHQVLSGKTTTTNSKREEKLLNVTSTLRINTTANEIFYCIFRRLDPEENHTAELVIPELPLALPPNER
T2 sequence (Q9NZQ7 19-290 limits assumed): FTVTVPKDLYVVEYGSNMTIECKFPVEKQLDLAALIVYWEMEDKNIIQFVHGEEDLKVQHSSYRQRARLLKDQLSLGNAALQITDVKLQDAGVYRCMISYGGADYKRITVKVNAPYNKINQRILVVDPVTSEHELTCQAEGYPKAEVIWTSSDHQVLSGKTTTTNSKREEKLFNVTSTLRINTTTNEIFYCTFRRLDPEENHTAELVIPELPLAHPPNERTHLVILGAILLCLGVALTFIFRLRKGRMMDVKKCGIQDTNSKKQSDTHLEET
T5 sequence (Q9NZQ7 19-238 limits assumed): as the sequence (G7PSE7 entry or part of it limits assumed) above, with T33A, S34A, N62S, Q68R, R82Q, L173F, A185T, I192T, L215H counted along it
T7 sequence (P26717 other isoform, or with tags, fused parts or gaps): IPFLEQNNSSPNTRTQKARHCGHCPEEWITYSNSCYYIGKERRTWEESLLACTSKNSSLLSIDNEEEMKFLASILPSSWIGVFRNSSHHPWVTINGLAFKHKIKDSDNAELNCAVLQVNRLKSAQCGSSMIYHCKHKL
T6 sequence (NKG2A, as listed by the source limits assumed, chain 1 of 2): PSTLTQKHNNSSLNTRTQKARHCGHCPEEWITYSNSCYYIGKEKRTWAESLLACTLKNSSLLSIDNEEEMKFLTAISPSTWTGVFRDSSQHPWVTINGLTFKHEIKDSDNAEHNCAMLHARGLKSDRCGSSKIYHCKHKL
T6 sequence (CD94, as listed by the source limits assumed, chain 2 of 2): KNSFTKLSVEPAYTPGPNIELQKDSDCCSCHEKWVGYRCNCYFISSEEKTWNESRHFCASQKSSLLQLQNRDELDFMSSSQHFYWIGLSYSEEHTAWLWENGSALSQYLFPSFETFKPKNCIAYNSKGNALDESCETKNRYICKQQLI
T8 sequence (Q9MZJ3 other isoform, or with tags, fused parts or gaps, chain 1 of 2): as the sequence (NKG2A, as listed by the source limits assumed, chain 1 of 2) above
T8 sequence (Q9MZK9 32-179, chain 2 of 2): as the sequence (CD94, as listed by the source limits assumed, chain 2 of 2) above

Row | IC50 of inhibiting PD-1/PD-L1 interaction in PD-L1+MDA-MB-231 cells (PD-1/PD-L1 Signaling Bioassay, chemiluminescent signal) (PD-L1 expressed on cells [1]) | EC50 (read off the curve) of doublet formation between NKG2A+ KHYG-1 and PD-L1+ LCL721.221-PD-L1 cells [2] | EC50 (read off the curve) of doublet formation between NKG2A+ KHYG-1 and PD-L1+ LCL721.221-PD-L1 cells (PD-L1 expressed on cells [3]) | binding result [4] | EC50 (PD-L1 expressed on cells [5]) | Kd [6] | koff [6] | kon [6] | Kd [7] | koff [7] | kon [7] | Kd (Cyno PD-L1) | koff (Cyno PD-L1) | kon (Cyno PD-L1) | EC50 [8] | EC50 [9] | Kd [10] | binding result [11] | binding result [12] | EC50 [13] | Binder
1 | 557 pM | ~200 pM | ~200 pM | no binding | 2170 pM | 380 pM | 9e-05 s⁻¹ | 240000 M⁻¹ s⁻¹ | 170 pM | 8e-05 s⁻¹ | 470000 M⁻¹ s⁻¹ | 110 pM | 6e-05 s⁻¹ | 540000 M⁻¹ s⁻¹ | 2800 pM | 66000 pM | 49000 pM | – | – | – | P12 × A11 (1 × 1 format) (bispecific antibody, One PD-L1 site, one NKG2A site; also called P12×A11, sFc; P12×A11 (sFc)) heavy 1: DIQMTQSPSSLSASVGDRVTITCRASQSVSSAVAWYQQKPGKAPKLLIYSASSLYSGVPSRFSGSRSGTDFTLTISSLQPEDFATYYCQQFMLEPITFGQGTKVEIKGQPREPQVCTLPPSRDELTKNQVSLTCLVRGFYPSDIAVEWESNGQPENNYKTTPPVLDSDGSFFLYSKLTVDKSRWQQGNVFSCSVMHEALHNHYTQKSLSLSPGKDKTHTCPPCPAPEAAGGPSVFLFPPKPKDTLMISRTPEVTCVVVDVSHEDPEVKFNWYVDGVEVHNAKTKPREEQYNSTYRVVSVLTVLHQDWLNGKEYKCKVSNKALKAPIEKTISKAKGQPREPQVYTLPPSREEMTKNQVSLSCAVKGFYPSDIAVEWESNGQPENNYKTTPPVLDSDGSFFLVSKLTVDKSRWQQGNVFSCSVMHEALHNHYTQKSLSLSPGK light 1: EVQLVESGGGLVQPGGSLRLSCAASGFTFSSYYIHWVRQAPGKGLEWVATINSRGGFTLYADSVKGRFTISADTSKNTAYLQMNSLRAEDTAVYYCARGYTLTPVLDYWGQGTLVTVSSAQPREPQVYTLPPCRDWLTKNQVSLTCLVKGFYPSDIAVEWESNGQPENNYKTTPPVLDSDGSFFLYSKLTVDKSRWQQGNVFSCSVMHEALHNHYTQKSLSLSPGK heavy 2: not shown light 2: EVQLVESGGGLVQPGGSLRLSCAASGFTFSWYYIHWVRQAPGKGLEWVAVIDPISSYTYYADSVKGRFTISADTSKNTAYLQMNSLRAEDTAVYYCARGFDRAMDYWGQGTLVTVSSASTKGPSVFPLAPSSKSTSGGTAALGCLVKDYFPEPVTVSWNSGALTSGVHTFPAVLQSSGLYSLSSVVTVPSSSLGTQTYICNVNHKPSNTKVDKKVEPKSC
2 | – | – | – | – | – | – | – | – | – | – | – | – | – | – | – | – | – | no binding | binds | 26700 pM | Antibody Clone A42 (antibody, human IgG1, kappa, V domains shown) VH: EVQLVESGGGLVQPGGSLRLSCAASGFTFSWYYIHWVRQAPGKGLEWVAVIDPISSYTYYADSVKGRFTISADTSKNTAYLQMNSLRAEDTAVYYCARGFDRAMDYWGQGTLVTVSS VL: DIQMTQSPSSLSASVGDRVTITCRASQSVSSAVAWYQQKPGKAPKLLIYSASSLYSGVPSRFSGSRSGTDFTLTISSLQPEDFATYYCQQYYSSPYTFGQGTKVEIKR
